From ChEMBL document CHEMBL1157152, “Kinetic parameters and recognition of thymidine analogues with varying functional groups by thymidine phosphorylase” (Bioorg Med Chem, 2008)

Experiments:
[1] = substrate: Cc1cn([C@H]2CC[C@@H](CO)O2)c(=O)[nH]c1=O; assay: (§1) Activity of Escherichia coli thymidine phosphorylase
[2] = substrate: Cc1cn([C@H]2C[C@H](O)[C@@H](C)O2)c(=O)[nH]c1=O; assay: as §1
[3] = substrate: Cc1cn([C@H]2C[C@H](O)[C@@H](CO)O2)c(=O)[nH]c1=O; assay: as §1

B1: Thymidine phosphorylase (Escherichia coli K-12), P07650 (protein)
chain: MFLAQEIIRKKRDGHALSDEEIRFFINGIRDNTISEGQIAALAMTIFFHDMTMPERVSLTMAMRDSGTVLDWKSLHLNGPIVDKHSTGGVGDVTSLMLGPMVAACGGYIPMISGRGLGHTGGTLDKLESIPGFDIFPDDNRFREIIKDVGVAIIGQTSSLAPADKRFYATRDITATVDSIPLITASILAKKLAEGLDALVMDVKVGSGAFMPTYELSEALAEAIVGVANGAGVRTTALLTDMNQVLASSAGNAVEVREAVQFLTGEYRNPRLFDVTMALCVEMLISGKLAKDDAEARAKLQAVLDNGKAAEVFGRMVAAQKGPTDFVENYAKYLPTAMLTKAVYADTEGFVSEMDTRALGMAVVAMGGGRRQASDTIDYSVGFTDMARLGDQVDGQRPLAVIHAKDENNWQEAAKAVKAAIKLADKAPESTPTVYRRISE
B1 showed a Km [1] of 32 mM, a Vmax [1] of 0.014 mM/min and a Km [2] of 10 mM. The Vmax [2] was 3.4 mM/min, the Km [3] was 2.5 mM and the Vmax [3] was 5.2 mM/min.
